{"source": "paper PMC9474881", "biological_target": "PsgIBP_L, larger (28 kDa) ice-binding protein isoform from Psychromyces glacialis (Psychromyces glacialis)", "assay": "SEC; analytical Superose12 column, 20 mM Tris-HCl pH 8.0 + 500 mM NaCl, 0.8 ml/min, 4 °C; 0.5 mL of 1 mg/ml protein loaded; molecular weight from a calibration line with five reference proteins"}
{"substance": "PsgIBP_L, larger (28 kDa) ice-binding protein isoform from Psychromyces glacialis (natural protein)", "values": [{"measurement": "stoichiometry N", "value": 2}]}
